Experimental data published in the DeepSol protein solubility set.

Assay: soluble on expression in E. coli; label from the status in PepcDB or PDB records

For “MGSDKIHHHHHHMLKKSNIQWTAKQIAKMMDKGTLGFDNSVQRGLCWKTDKKILLIDSMFQNYPIPAFYAARNEDKTYDMLDGKQRCHAIKEFIEGKFKLDGIEEVELEDGESIDVNGMSFEELPEELQDRVKDYSLTVYFFLDLSDDQVSEMFYRLNNGKALSAIELTRVKAKSFDAIRELGNHEIFKNALTLKQVNKYTNEDIVIKTYAMLYTENPSFETKKIRPLMQDVEFTEQQKEEIKKAYSKILDIWKAINTEDKEHKKIAKRILTRTHLLTIIPIVIKSDKTIEELASWLLKFYSGKRRASISEKYNSAAGSGSARSESIKIRLEELKKDYNEYFSNQDEEINKKIEEIFKEGDSIE”, which “soluble on expression in E. coli” value is on record?
Its value is “not soluble”.

Which “soluble on expression in E. coli” value does the source give for “MAGDPMVTQNKKILIITGSFGNGHLQVTQSVVNQFKEMNLDNLTVIEHDLFLEAHPILTSICKKWYINSFKYFRNMYKAFYYSQPDQLDKCFYKYYGLNKLMNLLLKEKPDLILLTFPTPVMSVLTEQFDMNIPIATVMTDYRMQKNWITPFSQRYYLATEELKDEFASIGIPKDKLKVTGIPISDKFETDIDKTAWLSQNHLDPDKPTILMSAGAFGVSKGFGQMIQEILNRSPHAQVVMICGKNKDLKRSLTSQFKDFNNVLILGYTKHMNEWMASSQLMITKPGGITISEALTRQIPMIFLDPAPGQELENAVYFEEKGYGRIANTPEAAIEQVAALTNAPTKLASMSESMDASRIPYSTYKLCKDLLNLLNHSSHYEEVYGKVPLYAKLFVKLEHHHHHH” here?
Its value is “not soluble”.

For “MSLADERDQLKSIQADIAAKERAVRQKQQQRASLLAQLKKQEEAISEATRKLRETQNTLNQLNKQIDEMNASIAKLEQQKAAQERSLAAQLDAAFRQGEHTGIQLILSGEESQRGQRLQAYFGYLNQARQETIAQLKQTREEVAMQRAELEEKQSEQQTLLYEQRAQQAKLTQALSERKKTLAGLESSIQQGQQQLSELRANESRLRNSIARAEAAAKARAEREAREAQAVRDRQKEATRKGTTYKPTESEKSLMSRTGGLGAPRGQAFWPVRGPTLHRYGEQLQGELRWKGMVIGASEGTEVKAIADGRVILADWLQGYGLVVVVEHGKGDMSLYGYNQSALVSVGSQVRAGQPIALVGSSGGQGRPSLYFEIRRQGQAVNPQPWLGREGHHHHHH”, which “soluble on expression in E. coli” value is on record?
The value was “soluble”.

Which “soluble on expression in E. coli” value does the source give for “MPITKFIWSPSGTGLSEHAWATSESTGAAWVGNDAAAHISLLRSTVAEELAVPLEQAGMDAATMQRAVDTAIDTWGLRGQAEQDPMTLSSGQTRRLAIAGALITRPEALVLDCPTDGLDTEAIEILHRIVDSFPGNVTVYDRMHTALATTAAEQLRLTSSGDLVPEPAPDPVDTVSARFTPIDLSTDHGPLLCAKNLRIPRGATTVGPISCEVSPSSVTHLAGLNGTGKTSFFLAALGLVASTGTLQVADGVTMGWAPADMDSALSRRTVATELTVGATPELAQAAIEFMGLEQWADTHPLDVPAAWRRFVLIAAALVRGPHLLLLDEPTVNLDAPNHGHLSLLMHRYCAGEFHRMAGLDLGGHHPAVLFTCHDARYAQAVSTAEIRI” here?
The value was “not soluble”.

Which “soluble on expression in E. coli” value does the source give for “MNSTHHYEQLIEIFNSCFADDFNTRLIKGDDEPIYLPADAEVPYNRIVFAHGFYASAIHEISHWCIAGKARRELVDFGYWYCPDGRDAQTQSQFEDVEVKPQALDWLFCVAAGYPFNVSCDNLEGDFEPDRVVFQRRVHAQVMDYLTNGIPERPARFIKALQNYYHTPELTAEQFPWPEALN” here?
The value was “not soluble”.

With “MAAAALRSGWCRCPRRCLGSGIQFLSSHNLPHGSTYQMRRPGGELPLSKSYSSGNRKGFLSGLLDNVKQELAKNKEMKESIKKFRDEARRLEESDVLQEARRKYKTIESETVRTSEVLRKKLGELTGTVKESLHEVSKSDLGRKIKEGVEEAAKTAKQSAESVSKGGEKLGRTAAFRALSQGVESVKKEIDDSVLGQTGPYRRPQRLRKRTEFAGDKFKEEKVFEPNEEALGVVLHKDSKWYQQWKDFKENNVVFNRFFEMKMKYDESDNAFIRASRALTDKVTDLLGGLFSKTEMSEVLTEILRVDPAFDKDRFLKQCENDIIPNVLEAMISGELDILKDWCYEATYSQLAHPIQQAKALGLQFHSRILDIDNVDLAMGKMVEQGPVLIITFQAQLVMVVRNPKGEVVEGDPDKVLRMLYVWALCRDQDELNPYAAWRLLDISASSTEQIL” as the sequence, how does the “soluble on expression in E. coli” value read?
Its value is “soluble”.

Which “soluble on expression in E. coli” value does the source give for “MAQEKMDLDFEADTSEGATLRRSNSAPLIHVLSDLSQVFEPYPLRTGRTSTAIMSHHSLEEGLDMMNRETTNEREAQAGMQISQSWDESLSLSGSDFDKPEKLYSPKRIDFTPVSPAPSPTRGFGKQCLSPSLQMFVSSSGMPPSPVLNPRHFSRRSQSPVKCIRPSVLGPLKRKGEMEMESQPKRPFQGTTSMLSTNPAQLSDFSSCSDILDGSSISSGLSSDSLATGSAPAESPVACSNSCSPFILMDDLSPK” here?
Its value is “not soluble”.

Which “soluble on expression in E. coli” value does the source give for “MGGGERYNIPAPQSRNVSKNQQQLNRQKTKEQNSQMKIVHKKKERGHGYNSSAAAWQAMQNGGKNKNFPNNQSWNSSLSGPRLLFKSQANQNYAGAKFSEPPSPSVLPKPPSHWVPVSFNPSDKEIMTFQLKTLLKVQV” here?
The value was “not soluble”.

For “MNGKFDKYEYLQDLMRRRGFAWGSFEIYGGSRGFYDYGPLGATIKRKIERKIREAFIREGFFEIETPDITPEQVFIASGHVEKFVDPVVECKKCGMRFRADHLIEEFLGIDVEGKSAEEMSRIIREHGLKCPECGGELSDVFYFNLMFETYIGPYKDKKAYLRPETAQGIFVNFKRLNAFARNKLPFGVFQIGKAYRNEISPRQGMIRLREFTQAEAEIFFNPNETEHPHFNEVKHEKLKLYPIENQLKELGEVEVTAEEAVKRGYVMNSFFAYYMVMIKKILLDIGIPEDKIRFRQQLPEERAHYSADTWDAEVYSERFGWVECVGLAYRTDYDLSRHMKMSGADLTVMIHYDKPKVVKRIQVSLNMKKVGPKLKADAKKINEIIKSMDQKELEKLVKDLNEKGKVTIEGYELSKEDFIVKEVEEKITGEKIVPHVLEPSFGIDRPFYLLLENSLTVDEDGRIYLKIKKDMAPIEVAVLPLVAKEPLTTIAYEIYRTLQKEGFIVVYDEKDSIGKRYMRYDEIGTPYCVTVDNQTPEDGTVTIRDRDTREQIRVKIEELPRKLKELIFG”, which “soluble on expression in E. coli” value is on record?
The value was “soluble”.

For “MASKGAARVRKKEIVKVVHGALLRTNIKAQMASAAPPLGPQLGQRGLNVANFCKEFNKETGHFKQGVPLPTRITVKPDRTYDLEICTPTTTWLLKQAAGIGRGKASKDEIVGKLTVKHLYEIAKIKSRDKALQHVPLEQICRMLIKTCRTLGIDVQYHDLDPVELKEFLVARKEKVDAQLKDLADKKAAKMLRTT”, which “soluble on expression in E. coli” value is on record?
Its value is “not soluble”.

With “MGSDKIHHHHHHMQTLTIDVGGSKALFELQLAGHTEQYKIPTGEGFKIEELNNQIAALERDYDLQDYQLAIAVPGLVQHHRLVACKSLPGLNGLSIDTVKTQGTLKIISNDIDAGMQALCDAKYACELLVMCGSGIGMSIAFNGQVFSGATGVAGELGHCRIMSESGEFRLEQLASGDSVRSRNITSQEDLYRAGSYLGMGLAWAVNLLNPNRIWLAGGMMNSTPYYKGCIDNLKRMALSAPLAEMKIHRVDDMETLVCRGLSVILARDVSLT” as the sequence, how does the “soluble on expression in E. coli” value read?
Its value is “not soluble”.

Which “soluble on expression in E. coli” value does the source give for “MDSVIQKRIFVGNIFHNADDCYSELLDRFGKFGDCQDFQFEKHNHFAFIDIRFNDEADFNKLRKSFNNVKFKGNILKVDEAKPNWESTWAVQHAKDLKEDIILNAKMKKKNWQHYKKMENVAKSWKDHKEVIAGRMREAPRKRSQLRNITFRINVNGSLKVYKCYKTKLWGYERNKELNDLVYKFTNNFWKNGYNHIVDRLDYSRAVKTVRFKNGLKQLTVSKDENVCSGEMDSDENMSEEEKEKNNVILNDLLKDFDFDKPMTLNDSDEELLTEQRKGEEEEEEEEEKEVNAPEYENVNKTKDQSTLPQEKPEERKEQDEGDGQEDNEFIPTFTKEIGQGTISNTETLRNLFNPNEAEPVSQFKLIEDSDNDIDHAKDVDVNQLEEEVSKSSDTLGLTSAPVPHVSRDKDNKNFLFFPHLQSPFLVGQTQLSKVRAPGRETMLSNWDEEFWANRGNWTRDMRRKMKDALKHRKRKQSKSGLLL” here?
Its value is “not soluble”.

With “GPGSMLLMPFPLVPSPPPTRLSGHLTPVALVGVLVCASPRCAPKPRPRPWNASHTHTHTHTSPRPLIAHTVSLCVSVVRKHLFFFRRFLRLPPSPNRKRNQLTGAAMLTRRAVSSAVGAAMVTSSSVSMQRRYDHDRWYGHALELDTHNYKFNGEPPSWMKTRAKTEEETSFAKSVLPHIDFASSYECLLFDADRLNTNLNRKEFGNEIKYRLEKQANTVARAQQLLRDKKAGTGPDAEKVENTLIARIFDEEHVQAEMKYVKCIRANELAEDNRLDILPGGSPNSLREKTRWNLNTELHPADRAEIGARLTAWLPEKYHIVYFDDFQTVAANDATARKEMLEIVESVQKEYTAEAKEGGYESDLKEAVAELMDDVDPTRTITMEAIKSCKDLQQLEDWSRQVHEYNGDDRIIAIYARAAEITKNVEHQALVRQMREWRKLATKNESKL” as the sequence, how does the “soluble on expression in E. coli” value read?
Its value is “not soluble”.

Which “soluble on expression in E. coli” value does the source give for “MGSDKIHHHHHHMETSAPRAGSQVVATTARHSAAYRADPLRVSSRDKLTEMAASSQGNFEGNFESLDLAEFAKKQPWWRKLFGQESGPSAEKYSVATQLFIGGVTGWCTGFIFQKVGKLAATAVGGGFFLLQLANHTGYIKVDWQRVEKDMKKAKEQLKIRKSNQIPTEVRSKAEEVVSFVKKNVLVTGGFFGGFLLGMAS” here?
Its value is “not soluble”.

With “MTSDGATSTSAAAAAAAAAAARRKPSWRERENNRRRERRRRAVAAKIYTGLRAQGDYNLPKHCDNNEVLKALCVEAGWVVEEDGTTYRKPLPGEIAGTSSRVTPYSSQNQSPLSSAFQSPIPSYQVSPSSSSFPSPSRGEPNNNMSSTFFPFLRNGGIPSSLPSLRISNSCPVTPPVSSPTSKNPKPLPNWESIAKQSMAIAKQSMASFNYPFYAVSAPASPTHRHQFHTPATIPECDESDSSTVDSGHWISFQKFAQQQPFSASMVPTSPTFNLVKPAPQQMSPNTAAFQEIGQSSEFKFENSQVKPWEGERIHDVGMEDLELTLGNGKARG” as the sequence, how does the “soluble on expression in E. coli” value read?
The value was “soluble”.

Which “soluble on expression in E. coli” value does the source give for “MSLKKVTLLVLDGFGVGAMADCEKVKPEDVNANTYKHLREAVDIHIPTLYQLGLGNIVDHLDTARAAYGRCDLAHHGADTFMGHQELMGSKPGVPQKRLMSEVGATIKKNLEKHGYDVRDPVEGAPVLLVNEAVVVGDNLESEVGNIINVVGDFRKLSFEQTIEVGKVVRSSVDTSRVIVYGNKEKTSIDLILSTIKERHPGQWGVDSPKANVYGEGYQVLHLGYGVDYEKQFAHLAEKQRLPVYRIGKTADVIQASGYHNPVVSTRKVLEVYQHEYSKSERDSVFLVNVQETDLAGHKEDCLWYKEVIEEVDRFLASFIDELDEEDLLIITADHGNDPTIGHSNHTREQTPVIIVGPQVRPISIGTRQTMADLAATMADYMGVAPPQYGTSFLHQILREGHHHHHH” here?
Its value is “soluble”.

Which “soluble on expression in E. coli” value does the source give for “MSLTREVGQRREAEETAHKLAHTDPLTGCLNRRSMGPAVEQMVSTARTSGHEVVVMMMDLDNFKRSNDVHGHQAGDAVLLHTADRIRAILPAGSIIARLGGDEFACAAIFDPDHVESIDRLILRMNEAVAMPVRVDGLMLEVTASIGLAATSAADAGAPPALADTLLHRADLAMYQAKKAGRNRYCWFEQNMESELRFRSELEREIREGVARGEFVPYYEKQIDLETGELTGFEMLARWRSPRHGLLSPEIFIPIAEEIGLISELSENLIRQALRDARDWDPTLTLSVNISPIQLRDPWFAQKLLKLLVEANFPPHRLDIEITETCLHENVGVVRTLITSLKNQGIRISLDDFGTGYSSLAQLRTLPFDQIKIDRFFVSNLGKNKDSATIVEAISSLGKGMDLPITAEGIESPEVLDELRKFGKFKGQGFLYGQPGDASEIRAMLADRQLLQQQAEGHHHHHH” here?
Its value is “soluble”.

Which “soluble on expression in E. coli” value does the source give for “MEFDPVKINTSSIDHVTILQYIDEPNDIRLTVCIIRNINNITYYINITKINPHLANRFRAWKKRIAGRDYMTNLSRDTGIQQSKLTETIRNCQKNKNIYGLYIHYNLVINVVIDWITDVIVQSILRGLVNWYIANNTYTPNTPNNTTTISELDIIKILDKYEDMYRVSKEKECGICYEVVYSKRLENDRYFGLLDSCNHIFCITCINIWHRTRRETGALDNCPICRTRFRKITMSKFYKLVN” here?
Its value is “not soluble”.
